Measured values: US8912148B2, “Methods of treating a disease or condition associated with abnormal angiogenesis” (Covx Technology Ireland, Ltd., priority 2006, dated 2014)
Starred links: 1 amine or outer side, 2 acyl side, 3 side chain; linkers in the order of their positions; H or OH if unused. Non-standard residues stand in square brackets, D forms with d. No end group written: not given here. Phe(4-COOH) = N[C@@H](Cc1ccc(C(=O)O)cc1)C(=O)O; AcK = CC(=O)NCCCC[C@H](N[*:1])C(=O)[*:2]; 0P = not defined here

What was measured:
[1] = target: T1, human angiopoietin-2 protein (Homo sapiens, UniProt O15123); test: Competitive ELISA: inhibition of Ang-2-Tie-2 binding, plates coated with Ang-2 (Table 7)
T1 construct: purchased R&D Systems
T1 sequence (O15123 19-496): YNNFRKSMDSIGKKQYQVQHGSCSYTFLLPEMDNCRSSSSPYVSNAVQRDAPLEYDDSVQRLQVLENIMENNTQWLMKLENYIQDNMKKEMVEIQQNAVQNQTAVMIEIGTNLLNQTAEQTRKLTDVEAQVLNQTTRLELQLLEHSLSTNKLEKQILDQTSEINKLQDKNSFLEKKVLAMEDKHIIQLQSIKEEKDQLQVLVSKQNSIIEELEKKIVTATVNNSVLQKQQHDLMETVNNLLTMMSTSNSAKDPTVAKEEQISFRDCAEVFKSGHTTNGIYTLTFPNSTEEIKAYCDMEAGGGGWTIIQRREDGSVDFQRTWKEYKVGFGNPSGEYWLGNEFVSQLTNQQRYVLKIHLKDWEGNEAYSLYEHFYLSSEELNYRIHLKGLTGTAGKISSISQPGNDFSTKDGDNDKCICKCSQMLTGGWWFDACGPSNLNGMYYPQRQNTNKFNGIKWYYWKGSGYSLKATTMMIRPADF
Experimental: The ability of Ang-2 binding compounds to interact with Ang-2 was measured by competition with Tie-2.
For competitive ELISA, human angiopoietin-2 protein and Tie-2-Fc (R&D Systems) were reconstituted without carrier protein. Mouse anti-human Tie-2 (Pharmingen) was used as the primary antibody and goat anti-mouse-IgG1-HRP (Pierce) was used as the secondary antibody. TMB substrate from Pierce was used.
High-binding half-well plates were coated with Ang-2 (100 ng/well) in 50 μl PBS and incubated at 4° C. overnight. Plates were washed three times with washing buffer (0.1% Tween 20, PBS, pH 7.4) and blocked with Superblock (Scytek), 100 μl/well at room temperature (“RT”) for 1 hour. After removing the blocking solution, 50 μl of an Ang-2 binding peptide compound (1 uM and 5× serial dilution) in the presence of 0.25 nM hTie-2-Fc using Superblock as diluent was added and incubated at RT for 2 hours. Plates were washed 3 times with washing buffer. Then, 50 ul of 0.1 ug/ml mouse anti-human Tie-2 diluted in Superblock added and incubated at RT for 1 hour. Following incubation, 50 ul of 1:5,000 dilution of goat anti-mouse IgG-HRP in Superblock was then added and incubated at RT for one hour. After washing 3 times, 50 μl (25 μl TMB+25 μl H2O2) was added, and incubated for 3-5 minutes. Color development was monitored and stopped with 25 μl of 2 M H2SO4. OD450 nm with a correction wavelength of 540 nm was measured.
In Table 7, compounds of SEQ ID NOs: 21-23 are Ang-2 binding peptides alone, not conjugated to either a linker or linker-antibody; compounds of SEQ ID NOs:65 and 66 are Ang-2 binding peptides conjugated to a linker-antibody, where the linker is 4P (“4” PEG) and has the structure of the linker shown in FIG. 2; and compounds 26-63 are Ang-2 binding peptides conjugated to a linker-antibody, where the linker is OP (“O” PEG) and has the structure of the linker shown in FIG. 3. Compounds 24-63 were conjugated to humanized aldolase antibody h38c2 and the linker structures shown in FIG. 2 (4P) and FIG. 3 (OP) when obtainng the data shown below, except where otherwise indicated.
In Table 7, amino acid sequences of peptide compounds are shown with the position of linker OP or 4P indicated in parentheses following the internal amino acid residue to which the linker is attached. For compound of SEQ ID NO:67, the N-terminal “OP” linker is indicated at the beginning of the peptide sequence.

Recombinant human Ang-2 = target: T2, Recombinant human Ang-2 (Homo sapiens, UniProt O15123); test: Truncation study: competition with compound 43 linked to linker and h38c2 for binding to coated Ang-2 (Table 9); details: competition with compound 43-linker-h38c2 at 10 ng/mL, read-out: Ang-2 T IC50
T2 sequence (O15123 19-496): T1 sequence (O15123 19-496)
Experimental: Recombinant human Ang-2 was coated on microtiter plates at 0.5 μg/mL in 100 μL, overnight at 2-8° C. Plates were washed between all steps and all subsequent incubations occurred at room temperature. Plates were blocked with 250 μL per well of SuperBlock for 1-3 hours. Test compounds were pre-mixed with compound 43 linked to linker (as shown in FIG. 3) and h38c2 at 10 ng/mL. Peptide mixtures in 100 μL were then added at the listed final concentrations, the plates sealed, and incubated for 1-2 hours. Bound compound 43 was detected with 100 μL of a 1:20,000 dilution of HRP-labeled anti-human IgG reagent for 1-2 hours. Finally, 100 μL TMB substrate was added for 10 minutes and the reaction stopped with 100 μL of 2 NH2SO4 stop solution.

[2] = target: T1, human angiopoietin-2 protein; test: Reverse competition ELISA: inhibition of Ang-2-Tie-2 binding, plates coated with Tie-2-Fc (Table 8); details: reverse competitive ELISA; peptide linked to antibody h38c2 via 0P linker
Experimental: For reverse competition ELISA, human Tie-2-Fc, angiopoietin-2 protein, biotinylated anti-human Ang-2 antibody, and streptavidin HRP(R&D Systems) and TMB substrate from Pierce were used.
High-binding half-well plates were coated with Tie-2-Fc (50 ng/well) in 50 μl PBS and incubated at 4° C. overnight. Plates were washed three times with washing buffer (0.1% Tween 20, PBS, pH 7.4) and blocked with Superblock, 150 μl/well at RT for 1 hour. Plates were washed three times. Following washing, 50 μl of an Ang-2 binding peptide compound (50 nM, 5× serial dilution) in the presence of 50 ng/ml (0.83 nM) Ang-2 in Superblock were added and incubated at RT for 1 hour. Plates were washed 3 times, 50 μl of 1 μg/mlbiotinylated anti-Ang-2 detection antibody in Superblock was added and incubated at RT for 2 hours. Plates were washed 3 times, and 50 μl of streptavidin HRP (1:200 dilution in Superblock) was added at RT for 20 minutes. Plates were washed 3 times, and 50 μl (25 μl TMB+25 μl H2O2) substrate solution was added and incubated for 20-30 minutes. Color development was stopped with 25 μl of 2 M H2SO4. OD450 nm with a correction wavelength of 540 nm was measured.
IC50 values are provided for the targeting peptide plus linker (as shown in FIG. 3) and the targeting peptide linked to an antibody (P) via the linker of FIG. 3, unless otherwise specified.

Co10205 cells = test: Xenograft studies: subcutaneous tumor growth in nude mice, % T/C (Table 10); format: in vivo
Experimental: Co10205 cells were cultured with 10% FBS RPMI medium and 3×10^6 cells in 0.1 ml Hank's balanced salt solution (HBSS) were injected subcutaneously into the upper right flank of nude mice. After 7-9 days, animals were randomized into appropriate number of groups with average tumor size of 200-300 mm^3. Mice were then treated with the requisite amount of compounds of the invention and tumor volumes were measured twice a week. Animals were terminated once their average tumor volume reached 2000 mm^3. Upon termination, tumors were weighed and saved for further histological studies. Treatment efficacy was evaluated by measuring the difference in the tumor volumes of treated versus control groups. Results are reported as % T/C, where % T/C was calculated as: % T/C=(Vt−V0)/(Ct−C0)×100, where, V0 and Vt were the average tumor volumes of treated groups at the beginning and termination of the group. CO and Ct were the average tumor volumes of the control group at the beginning and termination of the group (Table 10).

[3] = P = targeting peptide linked to antibody h38c2 via the linker, read-out: Ang-2 P IC50
[4] = T = targeting peptide plus linker (compounds 21-23: peptide alone), read-out: Ang-2 T IC50

Substance	IC50 [1, 3]	other results
25: "compounds of SEQ ID NOs:65 and 66 are Ang-2 binding peptides conjugated to a linker-antibody, where the linker is 4P (“4” PEG)" (QNYQPLDELDXTLYDQFMLQQG; 4P PEG linker conjugated to antibody; Anti-angiogenic peptide) [Compound 25]	40.5 nM	
31 (Q[AcK]YQPLDELDETK(0P)YDQFMLQQG; reading uncertain; also: printed as Q(AcK)Y QPL DEL DET K(0P)YD QFM LQQ G) [Compound 31]	> 1000 nM	IC50 [1, 4]: > 5000 nM
33 (Q[AcK]YQPLDEK(0P)DETLYDQFMLQQG; reading uncertain) [Compound 33]	88.8 nM	
35 (QXYQXLDELDXTLYDQFMLQQG; AcK; hydroxyproline; K(0P); Anti-angiogenic peptide) [Compound 35]	16.7 nM	
36 (QXYQPLDELDXTIYDQFMLQQG; AcK; K(0P) modified lysine; Anti-angiogenic peptide) [Compound 36]	153 nM	
37 (QXYQPLDEIDXTLYDQFMLQQG; AcK; K(0P) modified lysine; Anti-angiogenic peptide) [Compound 37]	80 nM	
38 (QXYQPLDELDXTXYDQFMLQQG; not fully specified; AcK; K(0P); homocyclohexylalanine; Anti-angiogenic peptide) [Compound 38]	703 nM	IC50 [1, 4]: > 5000 nM
39 (QXYQPLDELDXTXYDQFMLQQG; AcK; K(0P); homophenylalanine; Anti-angiogenic peptide) [Compound 39]	258 nM	
40 (QXYQPLDELDXTXYDQFMLQQG; AcK; K(0P); thienylalanine; Anti-angiogenic peptide) [Compound 40]	358 nM	IC50 [1, 4]: > 5000 nM
59 (QRYQPLDELDXTLYDQFMLQQG; K(0P) modified lysine; Anti-angiogenic peptide) [Compound 59]	16.1 nM	
60 (QHYQPLDELDXTLYDQFMLQQG; not fully specified; K(0P) modified lysine; Anti-angiogenic peptide) [Compound 60]	14.4 nM	
62 (Q[AcK]YQPLDE[AcK]DK(0P)TL[Phe(4-COOH)]DQFMLQQG; not fully specified (C-terminus); reading uncertain; also: 0P linker on K11, antibody h38c2 conjugate or reactive form) [Compound 62]	41.3 nM	
87 (Ac-[AcK]YQPLDE[AcK]DK(0P)TLYDQFMLQQG-NH2; reading uncertain; also: 0P linker on K10, reactive end group for antibody) [Compound 87]		IC50 (Recombinant human Ang-2): > 4000 nM
88 (Ac-YQPLDE[AcK]DK(0P)TLYDQFMLQQG-NH2; reading uncertain; also: 0P linker on K9, reactive end group for antibody) [Compound 88]		IC50 (Recombinant human Ang-2): > 4000 nM
89 (Ac-QPLDE[AcK]DK(0P)TLYDQFMLQQG-NH2; reading uncertain; also: 0P linker on K8, reactive end group for antibody) [Compound 89]		IC50 (Recombinant human Ang-2): > 4000 nM
90 (Ac-PLDEK(Ac)DK(0P)TLYDQFMLQQG-NH2; reading uncertain; also: 0P linker on K7, reactive end group for antibody) [Compound 90]		IC50 (Recombinant human Ang-2): > 4000 nM
(Amido 2-PEG)QAcKY QPL DEL DK(OP)T LYD QFMLQQ G (QXYQPLDELDXTLYDQFMLQQG; amido-2-PEG cap; acetyl-lysine; OP linker at K11; Anti-angiogenic peptide) [Compound 52]	18.1 nM	
QAcKY QPL DEL DK(4P)T LYD QFM LQQ G (QXYQPLDELDXTLYDQFMLQQG; not fully specified; acetyl-lysine; 4P PEG linker to antibody at K11; Anti-angiogenic peptide) [Compound 24, "the second amino acid residue is epsilon acyl lysine ... the linking position (in this case a 4P linker) is the lysine residue 11"]	17.4 nM	
R^1-QNY QPL DEL DKT LYD QFM LQQ G-R^2 (QNYQPLDELDKTLYDQFMLQQG; also: variable termini R1, R2) [Compound 28]	28.6 nM	IC50 [1, 4]: 175 nM; IC50 [2]: 0.15 nM; % TC 3 mg/kg 1×/wk (Co10205 cells; 3 mg/kg 1×/wk): 34%; % TC 10 mg/kg 1×/wk (Co10205 cells; 10 mg/kg 1×/wk): 38%
